*1 amine or outer side, *2 acyl side, *3 side chain or, on linkers, in order; H or OH if unused. Bridges are numbered along the chain shown (N, C = ends). Where no end group is shown, it is not given here. [ ]: non-standard residue; d: D form. TATA = O=C(CC[*:1])N1CN(C(=O)CC[*:2])CN(C(=O)CC[*:3])C1; 1Nal = N[C@@H](Cc1cccc2ccccc12)C(=O)O; 2Nal = N[C@@H](Cc1ccc2ccccc2c1)C(=O)O; NMehArg = CN[C@@H](CCCCNC(=N)N)C(=O)O; Hyp = O=C(O)[C@@H]1C[C@@H](O)CN1; NMeI = CC[C@H](C)[C@H](NC)C(=O)O; NMeT = CN[C@H](C(=O)O)[C@@H](C)O; dCya = N[C@H](CS(=O)(=O)O)C(=O)O; hArg = N=C(N)NCCCC[C@H](N)C(=O)O; NMeN = CN[C@@H](CC(N)=O)C(=O)O; Agb = N=C(N)NCC[C@H](N)C(=O)O; Nle = CCCC[C@H](N)C(=O)O
T1: human Nectin-4 (human, UniProt Q96NY8 32-349)
T1 construct: a Gly32-Ser349 FLAG construct is described only under the SPR assay; also called PVRL4
T1 sequence (looked up): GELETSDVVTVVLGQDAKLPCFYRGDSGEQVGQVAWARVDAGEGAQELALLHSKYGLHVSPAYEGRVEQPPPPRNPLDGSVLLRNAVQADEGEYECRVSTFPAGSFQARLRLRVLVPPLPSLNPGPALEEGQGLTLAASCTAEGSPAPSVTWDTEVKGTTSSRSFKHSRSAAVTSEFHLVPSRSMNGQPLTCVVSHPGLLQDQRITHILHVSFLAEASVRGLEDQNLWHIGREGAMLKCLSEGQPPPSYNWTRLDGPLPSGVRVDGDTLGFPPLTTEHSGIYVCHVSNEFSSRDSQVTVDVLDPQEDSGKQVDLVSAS


biological target: T1, human Nectin-4; assay: FP competition, tracer SEQ ID NO 217
Protocol: Peptides were diluted to an appropriate concentration in assay buffer as described in the direct binding assay with a maximum of 5% DMSO, then serially diluted 1 in 2. […] Measurements were conducted as for the direct binding assay, however the gain was determined prior to the first measurement. Data analysis was in Systat Sigmaplot version 12.0 where the mP values were fit to a user defined cubic equation to generate a Ki value: […]

| Binder | Ki [nM] |
| --- | --- |
| ACPFGCQEDWSWPIWCLSE (linker 2-6-16 via TATA) [BCY3398] | 164 |
| DPGCPFGCMPGWSWPIWCA (linker 4-8-18 via TATA) [BCY3392] | 36.3 |
| DSECPFGCMSGWSWPIWCA (linker 4-8-18 via TATA) [BCY3389] | 99.8 |
| HDSCPFGC[Nle]KSWSWPIWCA (linker 4-8-18 via TATA) [BCY7274] | 90.5 |
| ACPFGCM[hArg]NWSWPIWCTNK (linker 2-6-16 via TATA) [BCY7265] | 38.3 |
| ACPFGCMKNWSAPIWCTNK (linker 2-6-16 via TATA, also called 80-09-02-T01-N012) [BCY7342] | 310 |
| ACPFGCMKNWSWPAWCTNK (linker 2-6-16 via TATA, also called 80-09-02-T01-N014) [BCY7344] | 39.8 |
| ACPFGCMKNWSWPIWCANK (linker 2-6-16 via TATA, also called 80-09-02-T01-N016) [BCY7346] | 64.9 |
| ACPFGCMKNWSWPIWCTAK (linker 2-6-16 via TATA, also called 80-09-02-T01-N017) [BCY7347] | 36.1 |
| ACPFGCMKNWSWPIWCTNA (linker 2-6-16 via TATA, also called 80-09-02-T01-N018) [BCY7348] | 20.6 |
| ACPFGCMKGWSWPIWCLKD (linker 2-6-16 via TATA) [BCY3395] | 17.4 |
| MDTCPFGCMEDWSWPIWCA (linker 4-8-18 via TATA) [BCY3391] | 198 |
| ACPFGCMSDWSWPIWCSTD (linker 2-6-16 via TATA) [BCY3399] | 410 |
| QK(Ac)WCAPLSDYWCNRICA (linker 4-12-16 via TATA) [BCY7280] | 219 |
| ACPFGCIKSWSWPIWCQME (linker 2-6-16 via TATA) [BCY3397] | 33.2 |
| Ac-CPF[dD]CM[hArg]NWSTP[NMeI]WC (linker 1-5-15 via TATA) [BCY8158] | 177 |

| Binder | Ki [nM] |
| --- | --- |
| ACPFGCQEHWSWPIWCTTA (linker 2-6-16 via TATA) [BCY3396] | 102 |
| HDSCPFGCMK(Ac)SWSWPIWCA (linker 4-8-18 via TATA) [BCY7273] | 84 |
| Ac-CPF[dD]CM[NMehArg]NWSTPIWC (linker 1-5-15 via TATA) [BCY8153] | 35 |
| HDSCPFGCM[dK]SWSWPIWCA (linker 4-8-18 via TATA) [BCY7276] | 326 |
| HDSCPFGCMKSWSWPIWCA (linker 4-8-18 via TATA) [BCY3393] | 173 |
| Ac-CP[1Nal][dD]CM[hArg]DWDTP[Hyp]WC (linker 1-5-15 via TATA) [BCY8174] | 12.3 |
| Ac-CP[1Nal][dR]CM[hArg]DWDTP[Hyp]WC (linker 1-5-15 via TATA) [BCY8185] | 26.1 |
| HDSCPFGCM[hArg]SWSWPIWCA (linker 4-8-18 via TATA) [BCY7275] | 43.3 |
| [dH]DSCPFGCMKSWSWPIWCA (linker 4-8-18 via TATA) [BCY7272] | 41 |
| ACPFGCMXNWSWPIWCTNK (core CPFGCM[K(Ac)]NWSWPIWC; TATA on 3 Cys) [BCY7266] | 41 |
| ACPFGCMKTWSWPIWCTDK (linker 2-6-16 via TATA) [BCY3394] | 102 |
| ACWPLDDYWCPRICPQA (linker 2-10-14 via TATA) [BCY3401] | 154 |
| QKWCAPLSDYWCN[hArg]ICA (linker 4-12-16 via TATA) [BCY7279] | 44.4 |
| HDACPFGCMEGWSWPIWCA (linker 4-8-18 via TATA) [BCY3390] | 302 |
| ACPFGCMKNWSWPIWCTN[hArg] (linker 2-6-16 via TATA, also called 80-09-02-T01-N003) [BCY7281] | 22.9 |
| Q[hArg]WCAPLSDYWCNRICA (linker 4-12-16 via TATA) [BCY7278] | 69 |

These reach a lower Ki. Values come first.

| Ki [nM] | Binder |
| --- | --- |
| 8 | Ac-CPF[dD]CM[hArg][NMeN]WSTPIWC (linker 1-5-15 via TATA) [BCY8154] |
| 6.3 | Ac-CP[1Nal][dR]CL[hArg]HWSTP[Hyp]WC (linker 1-5-15 via TATA) [BCY8214] |
| 6 | Ac-CP[2Nal][dR]CM[hArg]DWSTP[Hyp]WC (linker 1-5-15 via TATA) [BCY8186] |
| 5 | Ac-CP[1Nal][dR]CM[Agb]DWSTP[Hyp]WC (linker 1-5-15 via TATA) [BCY8192] |
| 5 | Ac-CP[1Nal][dR]CM[hArg]DWTTP[Hyp]WC (linker 1-5-15 via TATA) [BCY8187] |
| 5 | Ac-CPF[dD]CM[hArg]NWS[NMeT]PIWC (linker 1-5-15 via TATA) [BCY8157] |
| 4.5 | Ac-CP[1Nal][dR]CM[hArg]DWSSP[Hyp]WC (linker 1-5-15 via TATA) [BCY8191] |
| 3.5 | Ac-CP[1Nal][dR]CL[hArg]DWSTP[Hyp]WC (linker 1-5-15 via TATA) [BCY8213] |
| 3.5 | Ac-CP[1Nal][dD]CM[hArg]DWTTP[Hyp]WC (linker 1-5-15 via TATA) [BCY8176] |
| 3.5 | Ac-CP[1Nal][dR]CM[Hyp]DWSTP[Hyp]WC (linker 1-5-15 via TATA) [BCY8194] |
| 3.2 | Ac-CP[1Nal][dR]CM[hArg]DWSTP[Hyp]WC (linker 1-5-15 via TATA) [BCY8184] |
| 3.1 | Ac-CP[1Nal][dD]CM[hArg]HWSTP[Hyp]WC (linker 1-5-15 via TATA) [BCY8125] |
| 3.1 | Ac-CP[1Nal][dR]CM[hArg]HWSTP[Hyp]WC (linker 1-5-15 via TATA) [BCY8129] |
| 3 | Ac-CP[1Nal][dR]CMPDWSTP[Hyp]WC (linker 1-5-15 via TATA) [BCY8193] |
| 3 | Ac-CP[1Nal][dD]CM[hArg]DWSSP[Hyp]WC (linker 1-5-15 via TATA) [BCY8180] |
| 3 | Ac-CP[1Nal][dD]CL[hArg]DWSTP[Hyp]WC (linker 1-5-15 via TATA) [BCY8212] |
| 3 | Ac-CP[1Nal][dCya]CM[hArg]DWSTP[Hyp]WC (linker 1-5-15 via TATA) [BCY8163] |
| 2.2 | Ac-CP[1Nal][dR]CM[hArg]NWSTP[Hyp]WC (linker 1-5-15 via TATA) [BCY8128] |
| 2 | Ac-CP[1Nal][dD]CMPDWSTP[Hyp]WC (linker 1-5-15 via TATA) [BCY8182] |

Reference: US20210269480A1 (published 2021)
